Test results from patent US11015206B2, “Compositions and methods comprising sequences having hydroxyphenylpyruvate dioxygenase (HPPD) activity” (PIONEER HI-BRED INTERNATIONAL, INC., priority 2014, dated 2021).

How the values were obtained:
Assay type in all cases: biochemical, Z. mays
[1] = system: 4-hydroxyphenylpyruvate dioxygenase (HPPD); assay: Insensitivity parameter (ON × OFF) and trait fitness (ON × OFF × kcat/KM or × kcat); set-up: key to ON × OFF / Insensitivity, mesotrione, ON × OFF / Insensitivity, tembotrione, ON × OFF / Insensitivity, topramezone, ON × OFF / Insensitivity, sulcotrione, ON × OFF / Insensitivity, isoxaflutole (DKN), ON × OFF: insensitivity = ON rate ratio × OFF rate ratio (surrogate for KD)
Outline: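 Calculated, not measured directly: ON rate ratio × OFF rate ratio gives an insensitivity parameter serving as a KD surrogate.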

[2] = system: 4-hydroxyphenylpyruvate dioxygenase (HPPD); assay: Estimate of kcat from initial rate at saturating hydroxyphenylpyruvate without inhibitor (ON rate ratio assay)
Outline: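 Reactions used 60 or 120 nM HPPD and saturating 100 μM hydroxyphenylpyruvate without inhibitor. kcat was estimated from the initial rate at the known enzyme concentration.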

[3] = system: 4-hydroxyphenylpyruvate dioxygenase (HPPD); assay: OFF rate ratio: release of inhibitor from pre-formed enzyme-inhibitor complex; conditions: Table 7; tembotrione; combinatorial variants
Outline: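 HPPD (7.2 μM) pre-incubated 1 h at RT with inhibitor (8 μM), then diluted into 25 mM Hepes pH 7, 2 mM ascorbate, 10 μM FeSO4, 100 μM HPP, 50 nM HGD; A320 followed 12 min. Ratio = steady-state rate with inhibitor over initial rate of inhibitor-free enzyme.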

[4] = system: 4-hydroxyphenylpyruvate dioxygenase (HPPD); assay: ON rate ratio: HPPD reaction rate with vs without inhibitor in the 70 to 90 second interval; conditions: Table 7; tembotrione; combinatorial variants
Outline: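 Time courses of HPPD reactions, 60 or 120 nM enzyme with 100 μM HPP substrate, run with and without 4 μM inhibitor (e.g. mesotrione, tembotrione). Value is the rate with inhibitor over rate without, taken over 70–90 s; higher ratio reflects slower kON.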

[5] = Table 7, tembotrione, combinatorial variants
[6] = Table 7, combinatorial variants

| ON × OFF ([1]; Megatable 3, shuffled variants) | ON × OFF [1, 5] | OFF rate ratio [3] | ON rate ratio [4] | Molecule | ON × OFF × kcat ([1]; Megatable 3, shuffled variants) | ON × OFF × kcat [1, 5] | kcat ([2]; Megatable 3, shuffled variants) [min⁻¹] | kcat [2, 6] [min⁻¹] |
| --- | --- | --- | --- | --- | --- | --- | --- | --- |
| 0.281 | 0.281 | 0.410 | 0.685 | P056028-E-08 (protein, Zea mays variant form created by artificial means.) MGPTPTATAAGAAVAAASAAEQAAFRLVGHRNFVRFNPRSDRFQTLAFHHVELWCADAASAAGRFSFALGVPLAARSDLSTGNSAHASLLLRSGSLSLLFTAPYAHGADAATAALPSFSAAAARRFAADHGLAVRAVALRVADAEDAFRASVAAGARPAFGPVDLGRGFRLAEVELYGDVVLRYVSYPDGAAGEPFLPGFEGVASPGAADYGLSRFDHIVGNVPELAPAAAYMAGFTGFHEFAEFTTEDVGTTESGLNSMALANNSENVLLPLNEPVHGTKRRSQIQTFLDHHGGPGVQHIALASDDVLRTLREMRARSAMGGFEFLPPPLSDYYDGVRRCAGDVLTEAQINECQRLGVMVDRDDEGVLLQIFTKPVGDRPTFFLEIIQRIGCMEKDEKGQEYQKGGCGGFGKGNFGQLFKSIEDYEKSLEAKQAAAAATAQGS | 3.55 | 3.55 | 12.6 | 12.6 |
| 0.219 | 0.219 | 0.304 | 0.721 | P056028-E-11 (protein, Zea mays variant form created by artificial means.) MGPTPTATAAGAAVAAASAAEQAAFRLVGHRNFVRFNPRSDRFQTLAFHHVELWCADAASAAGRFSFALGVPLAARSDLSTGNSAHASLLLRSGSLSLLFTAPYAHGADAATAALPSFSAAAARRFAADHGLAVRAVALRVADAEDAFRASVAAGARPAFGPVDLGRGFRLAEVELYGDVVLRYVSYPDGGAGEPFLPGFEGVASSGAADYGLSRFDHIVGNVPELAPAAAYMAGFTGFHEFAEFTTEDVGTTESGLNSMALANNSENVLLPLNEPVHGTKRRSQIQTFLDHHGGPGVQHIALASDDVLRTLREMRARSAMGGFEFLPPPLSDYYDGVRRCAGDVLTEAQINECQELGVMVDRDDEGVLLQIFTKPVGDRPTFFLEIIQRIGCMEKDEKGQEYQKGGCGGFGKGNFGQLFKSIEDYEKSLEAKQAAAAATAQGS | 3.70 | 3.70 | 16.9 | 16.9 |
| 0.238 | 0.238 | 0.339 | 0.702 | P056028-E-10 (protein, Zea mays variant form created by artificial means.) MGPTPTATAAGAAVAAASAAEQAAFRLVGHRNFVRFNPRSDRFQTLAFHHVELWCADAASAAGRFSFALGVPLAARSDLSTGNSAHASLLLRSGSLSLLFTAPYAHGADAATAALPSFSAAAARRFAADHGLAVRAVALRVADAEDAFRASVAAGARPAFGPVDLGRGFRLAEVELYGDVVMRYVSYPDGAAGEPFLPGFEGVASQGAADYGLSRFDHIVGNVPELAPAAAYMAGFTGFHEFAEFTTEDVGTTESGLNSMALANNSENVLLPLNEPVHGTKRRSQIQTFLDHHGGPGVQHIALASDDVLRTLREMRARSAMGGFEFLPPPLSDYYDGVRRCAGDVLTEAQINECQELGVMVDRDDEGVLLQIFTKPVGDRPTFFLEIIQRIGCMEKDEKGQEYQKGGCGGFGKGNFGQLFKSIEDYEKSLEAKQAAAAATAQGS | 2.73 | 2.73 | 11.5 | 11.5 |

Further lines, the molecule ahead of its results:

| Molecule | ON × OFF ([1]; Megatable 3, shuffled variants) | ON × OFF [1, 5] | OFF rate ratio [3] | ON rate ratio [4] | ON × OFF × kcat ([1]; Megatable 3, shuffled variants) | ON × OFF × kcat [1, 5] | kcat ([2]; Megatable 3, shuffled variants) [min⁻¹] | kcat [2, 6] [min⁻¹] |
| --- | --- | --- | --- | --- | --- | --- | --- | --- |
| P056028-D-09 (protein, Zea mays variant form created by artificial means.) MGPTPTATAAGAAVAAASAAEQAAFRLVGHRNFVRFNPRSDRFQTLAFHHVELWCADAASAAGRFSFALGVPLAARSDLSTGNSAHASLLLRSGSLSLLFTAPYAHGADAATAALPSFSAAAARRFAADHGLAVRAVALRVADAEDAFRASVAAGARPAFGPVDLGRGFRLAEVELYGDVVLRYVSYPDGGAGEPFLPGFEGVASPGAADYGLSRFDHIVGNVPELAPAAAYMAGFTGFHEFAEFTTEDVGTTESGLNSMALANNSENVLLPLNEPVHGTKRRSQIQTFLDHHGGPGVQHIALASDDVLRTLREMRARSAMGGFEFLPPPLSDYYDGVRRCAGDVLTEAQINECQKLGVMVDRDDEGVLLQIFTKPVGDRPTFFLEIIQRIGCMEKDEKGQEYQKGGCGGFGKGNFGQLFKSIEDYEKSLEAKQAAAAATAQGS | 0.242 | 0.242 | 0.371 | 0.652 | 3.16 | 3.16 | 13 | 13 |
| P056028-E-05 (protein, Zea mays variant form created by artificial means.) MGPTPTATAAGAAVAAASAAEQAAFRLVGHRNFVRFNPRSDRFQTLAFHHVELWCADAASAAGRFSFALGVPLAARSDLSTGNSAHASLLLRSGSLSLLFTAPYAHGADAATAALPSFSAAAARRFAADHGLAVRAVALRVADAEDAFRASVAAGARPAFGPVDLGRGFRLAEVELYGDVVLRYVSYPDGGAGEPFLPGFEGVASSGAADYGLSRFDHIVGNVPELAPAAAYMAGFTGFHEFAEFTTEDVGTTESGLNSMALANNSENVLLPLNEPVHGTKRRSQIQTFLDHHGGPGVQHIALASDDVLRTLREMRARSAMGGFEFLPPPLSDYYDGVRRCAGDVLTEAQINECQELGVMVDRDDEGVLLQIFTKPVGDRPTFFLEIIQRIGCMEKDEKGQEYQKGGCGGFGKGNFQQLFKSIEDYEKSLEAKQAAAAATAQGS | 0.229 | 0.229 | 0.325 | 0.704 | 3.48 | 3.48 | 15.2 | 15.2 |
| P056028-E-07 (protein, Zea mays variant form created by artificial means.) MGPTPTATAAGAAVAAASAAEQAAFRLVGHRNFVRFNPRSDRFQTLAFHHVELWCADAASAAGRFSFALGVPLAARSDLSTGNSAHASLLLRSGSLSLLFTAPYAHGADAATAALPSFSAAAARRFAADHGLAVRAVALRVADAEDAFRASVAAGARPAFGPVDLGRGFRLAEVELYGDVVLRYVSYPDGAAGEPFLPGFEGVASPGAADLGLSRFDHIVGNVPELAPAAAYMAGFTGFHEFAEFTTEDVGTTESGLNSMALANNSENVLLPLNEPVHGTKRRSQIQTFLDHHGGPGVQHIALASDDVLRTLREMRARSAMGGFEFLPPPLSDYYDGVRRCAGDVLTEAQINECQELGVMVDRDDEGVLLQIFTKPVGDRPTFFLEIIQRIGCMEKDEKGQEYQKGGCGGFGKGNFQQLFKSIEDYEKSLEAKRAAAAATAQGS | 0.153 | 0.153 | 0.262 | 0.585 | 3.08 | 3.08 | 20.6 | 20.6 |
| P056028-E-03 (protein, Zea mays variant form created by artificial means.) MGPTPTATAAGAAVAAASAAEQAAFRLVGHRNFVRFNPRSDRFQALAFHHVELWCADAASAAGRFSFALGVPLAARSDLSTGNSAHASLLLRSGSLSLLFTAPYAHGADAATAALPSFSAAAARRFAADHGLAVRAVALRVADAEDAFRASVAAGARPAFGPVDLGRGFRLAEVELYGDVVLRYVSYPDGAAGEPFLPGFEGVASPGAADYGLSRFDHIVGNVPELAPAAAYMAGFTGFHEFAEFTTEDVGTTESGLNSMALANNSENVLLPLNEPVHGTKRRSQIQTFLDHHGGPGVQHIALASDDVLRTLREMRARSAMGGFEFLPPPLSDYYDGVRRCAGDVLTEAQINECQELGVMVDRDDEGVLLQIFTKPVGDRPTFFLEIIQRIGCMEKDEKGQEYQKGGCGGFGKGNFSQLFKSIEDYEKSLEAKQAAAAATAQGS | 0.303 | 0.303 | 0.412 | 0.735 | 5.10 | 5.10 | 16.9 | 16.9 |
| P056028-E-06 (protein, Zea mays variant form created by artificial means.) MGPTPTATAAGAAVAAASAAEQAAFRLVGHRNFVRFNPRSDRFQTLAFHHVELWCADAASAAGRFSFALGVPLAARSDLSTGNSAHASLLLRSGSLSLLFTAPYAHGADAATAALPSFSAAAARRFAADHGLAVRAVALRVADAEDAFRASVAAGARPAFGPVDLGRGFRLAEVELYGDVVLRYVSYPDGAAGEPFLPGFEGVASPGAADYGLSRFDHIVGNVPELAPAAAYMAGFTGFHEFAKFTTEDVGTTESGLNSMALANNSENVLLPLNEPVHGTKRRSQIQTFLDHHGGPGVQHIALASDDVLRTLREMRARSAMGGFEFLPPPLSDYYDGVRKCAGDVLTEAQINECQELGVMVDRDDEGVLLQIFTKPVGDRPTFFLEIIQRIGCKEKDEKGQEYQKGGCGGFGKGNFGQLFKSIEDYEKSLEAKQAAAAATAQGS | 0.064 | 0.064 | 0.186 | 0.346 | 1.76 | 1.76 | 28.2 | 28.2 |
